Results published in the DeepSol protein solubility set.

Assay: soluble on expression in E. coli; label from the status in PepcDB or PDB records

Q: With “GPGSMSTEDASIAYAKKHKIHHLFELMATKVLLNRPENPFAYLRNLLKDVEESEKNRVPYDPTEVHFNNDVGAAAPAAGNSGGSGAAAPAAALTSAKKEKRTVTLATFGLDRAGKTCALSVLESGEADKKYTPTVGFAPIKFPLDDYNLCVFDLGGAANFRGIWVHYYHDCFGIVYVIDSAASDERVAESLKVLHETLQHPYVKGKPLLVLANKKDLPESRGVGVVPQGFLEEAMGEPGAPHRVLATCAIEDDPVLVEGIEWLLEAVSKEYDTLAKRVAKDSNEVKSEKARQRAARLAAIRGEDR” as the sequence, how does the “soluble on expression in E. coli” value read?
A: soluble

Q: For “STQACPQPKTLDEFTIIQNLQPQYQFRDYFIATCKQGYQLIEGNQVLHSFTAVCQDDGTWHRAMPRCKIKDCGQPRNLPNGDFRYTTTMGVNTYKARIQYYCHEPYYKMQTRAGSRESEQGVYTCTAQGIWKNEQKGEKIPRCLPVCGKPVNPVEQRQR”, which “soluble on expression in E. coli” value is on record?
A: soluble

Q: For “MVELCELHMMPEEDQWPDDIDARIAALNFCGEDSMLFESVDPSVSTDSLDSQQFRERCQMKKEDFQLAFADSGHWQSGINDNLTTWGRIRTSEPLDERTASAPDVWNVKRSDSARSPNRPNSLIANFVSGDATRFVDVNDNEIREANEEIIRKDRWRRDSARRCSSGGQNQKRTFADILEKNVTAPTSMAITSSDNEKPPKLDFLAMHHEMPSLCESFTASFRDAIIKMQKCEPLPSITSTNDFPLFFQEDSPDSGLGCSGPSHIEDWQSLSVLLPKHVAEACSFFKSNTQLLTSSTSKTAPQTSTNIVSNCIDRRISGISASANEACRTCYRVRRRIHPPVWAQTAQSKTVLCDCASTPTDTNFSFAPTTSTTRHQLRAKELSIVGLPIYAAKRTLVENVVEGVAAISRGDGSDLLVIAMRCLIEDGLQENVSAWTMIQTVTSKGPATKDVHSIVKQLEECSKTDNVKVEIFFEELIRENSLDCWLCYIVLKEKVLKTLYSENAFLLSASSEYRTLLWRMVDSLSLLPVIEARSDSVHQQFKSMQQWGGASRIASDSRVPKSSSFPARLSTAPSRRSRIPLSTSRISISSTTSTPRSARSPSTTSRIRVASIMGDFTLANFSLSDGEKVSVLSTRGGLARCVRLTTSHSKINNGVIPIEHLLFQ”, which “soluble on expression in E. coli” value is on record?
A: not soluble

Q: Which “soluble on expression in E. coli” value does the source give for “MRPVYFLSDFGLEDPYVAVVKAVLAERAPGPAVVDLAHALPPQDLRRAAYALFEALPYLPEGAVVLAVVDPGVGTARRAVAALGRWTYVGPDNGLFTLAWLLDPPRRAFLLEPPRPRPKAALPGWAPGEATFHGRDVFAPAAAHLALGLPPEGLGPEVPVETLARLPLALTEGPEGEVLTFDRFGNAITTLLRAPVGGFVEVGGRRVPVRRTFGEVPEGAPVAYLGSAGLLEVAVNRGSAREALGLKEGMPVRLL” here?
A: soluble

Q: For “MLALPAEFEQFHWMVDMVQNVDMGLIVINRDYNVQVWNGFMTHHSGKQAHDVIGKSLFEIFPEIPVEWFKLKTKPVYDLGCRSFITWQQRPYLFHCRNVRPVTQQAKFMYQNVTLNPMRTPTGAINSLFLSIQDATSEALVSQQASSQ”, which “soluble on expression in E. coli” value is on record?
A: not soluble

Q: Which “soluble on expression in E. coli” value does the source give for “GPGSMTANSKPARFLALAAAKQGTTANVAFNALSVYAKMELSKQTNKMLKVHAATTPLVALIQKRTGIKAAAEAVRQTQTAAKATATVSSYDNSEINPQYIGADIAAKMEQMRKHESYGKIKKDGHTLSAPSTAKFPTAEDSTLRKITISVAVQVLCTGSSNSKWQISGKLEG” here?
A: soluble

Q: Which “soluble on expression in E. coli” value does the source give for “MLDNRPIGVFDSGIGGLTIVKNLMSILPNEDIIYFGDIARIPYGTKSRATIQKFAAQTAKFLIDQEVKAIIIACNTISAIAKDIVQEIAKAIPVIDVITAGVSLVDNLNTVGVIATPATINSNAYALQIHKKNPNIEVYSNPCGLFVSMIEEGFVSGHIVELVAKEYLSYFHDKNIQALILGCTHYPIIKESIAKILDVKLIDPSLQASKMLYSLLFENKLLNTTKSNPEYRFYVTDIPLKFRSVGEMFLQTEMQHLEIVSLDSY” here?
A: not soluble

Q: With “MGSDKIHHHHHHMRDFSSDHSALALNTASLGHNLEGHGAGWTSEQVIDACAERGFGSIVFWRREIGERAVKIGERVRSAGLTVAGLCRTPFLVGTQATDVESVMDDFKRSIDMAAALGAPVLTIVVGGVHPGTKGVAESLKIVADRVAEAAPCAQASGVKLALEPLNPVYAGNRSCLTTLRDAVDLCDRIAAPNVGIAVDVYHVWWDTELERQLKRAGAERIYGYHLCDWLAETNDVLLDRGMMGDGVADLKAIRSFVEGAGYRGPCEVEIFSANDWWKRDPGEVLDVMVERFRNCC” as the sequence, how does the “soluble on expression in E. coli” value read?
A: not soluble

Q: For “MLSSINMVKIGLEVHVHLTSLKTKLFCSCPSDYTGKDPNTNVCPICLGLPGAIPVLNENAVKAAIMVALAINAEIANSLIMVRKHYFYPDMAKNYQISQYDGPGSIAISKGGYLKLREGKTVRIRRINIEEDPAKIIYPTGSMLTSKYTLLDYNRSGMGLLEIVTEPDMTEPKEAREFLEKLRSILEHLGVCNCDLEGAMRADANVSVEGGERVEIKNIGSPREVEEALKYEIARQKAAIAQGLPVKRETRHWDSERKVTVPTRTKETEEDYRYFPDPDLPPYPITQDLIEEIRKTLPELPDLRIKRLVTQYGISDYDATVLVMDKALADLFEETAKHYSNYKKLVNLLINDYLRWLNDKNLRPSQSKAGSQHLVELLKLLDDGVITIKIAKEILPEIVLEGKMPSSIIKERGLVAIKDEDYLINVIKEVINEEPDAAEKAKNDPKVINYLVGKVMKKTGKRADPQLTNELIKKILGIK”, which “soluble on expression in E. coli” value is on record?
A: soluble

Q: With “MGSDKIHHHHHHMNITASFRDASLVAFDFPEILTRISKIIDALKAHDDSLRYENWMLKGDNQEDATRYHVYDAAGIATPAALAVLREEFRNSKDFTYVAMWDGNLASDNGASISCHVGDKSLPDTLTLRIEGERWKAYAAISGIVSTMVTIFSPALVEVSFDEYAVKQVFDDKPGVGWMLYLPKVITQQQVPEARALIPVPAKGKQTGTIIISVTDAPFSVDNPEHVAIANRIEIRLVDQDLLPAYVDI” as the sequence, how does the “soluble on expression in E. coli” value read?
A: not soluble

Q: Which “soluble on expression in E. coli” value does the source give for “MGSDKIHHHHHHAPQPTVAVARGKDYARTTRSALALLGGMKRFVKPGDVVVLKPNMGWDRTPAQAANTHPLVVRALAEEALAAGAKRVKVFDRTCNDERRCYVQSGISDALKGMKGVELKFIENERFRRVPIKGAVLPAWELYDEALSADVFINVPVAKHHGLSRLTLGLKNVMGVMGGNRGSIHRHLDDALADINSVLKSHLTVIDATRILTDHGPQGGSPADVKVMDTVIASTDIVAADAYATTLFGLKPEDIPVTVAAHKRGLGEMNLKRVRIVTA” here?
A: not soluble

Q: For “IIGGHEAKPHSRPYMAYLQIMDEYSGSKKCGGFLIREDFVLTAAHCSGSKIQVTLGAHNIKEQEKMQQIIPVVKIIPHPAYNSKTISNDIMLLKLKSKAKRSSAVKPLNLPRRNVKVKPGDVCYVAGWGKLGPMGKYSDTLQEVELTVQEDQKCESYLKNYFDKANEICAGDPKIKRASFRGDSGGPLVCKKVAAGIVSYGQNDGSTPRAFTKVSTFLSWIKKTMKKS”, which “soluble on expression in E. coli” value is on record?
A: soluble

Q: With “PAPTPSSSPVPTLSPEQQEMLQAFSTQSGMNLEWSQKCLQDNNWDYTRSAQAFTHLKAKGEIPEVAFMK” as the sequence, how does the “soluble on expression in E. coli” value read?
A: soluble

Q: Which “soluble on expression in E. coli” value does the source give for “IPKNTGGVLNSSVLDDAFSFITSYFDIEYGGLGFGAKFPHPFVDLLFLNYSATRGDDLGKKLGLFTLRKMYYGGIFDQVGGGFHRYTVDREWKLPHFEKLLIDNAELIYDYFTYYIATNDIEILDALRNSVDFVLRELYIDGKGFANSLDADSEGMEGKYYTWTEDELKDSLGNDY” here?
A: not soluble

Q: Which “soluble on expression in E. coli” value does the source give for “MSLKAVIGISASEVTIQSGPFMGEPRTYVNAAYVDSVLKNGGIPLVIPFTAGGEEMAFKQLDLVDGLILSGGHDLNPHLYGEEIDQKSGETWPDRDAFDMALLKRAEETGKPVLGICRGAQIINVAHGGSMWQDLSLRPGNTLKHMQAIRPDVGTHVVKIKSGTTLKKIMGKSSLMTNSFHHQLIKEVAPDLTESASASDGVTEALESTDGKVIAVQWHPEEMHANPAPEAAIMNRLFKYLIDKAEEEKEGHHHHHH” here?
A: soluble

Q: Which “soluble on expression in E. coli” value does the source give for “MGSSHHHHHHSSGLVPRGSHMSLYREVDAFRVDDERRRVPEKVVNDIEVRIRINGGMEQRFTASPQALEEFATGYLLGEGLVDSVDDIVSIEISDNIIDAEIESGDLDIRRELVMGSDCFGGWRQRVEMVGPVDSDLRVRADDIFLAFKRMVKSAVVWRMTGGTHVAALVTGDEFRVFEDVSRHVAVDKVIGSGAMDGVNFRESFIVYSGRMPADMLIKVVRAGVPIIASNAAPTSSGYDAAQRTGLTMLGFVRGKRFNIYSHPERII” here?
A: soluble

Q: Which “soluble on expression in E. coli” value does the source give for “IHNSRWIMTPEVKEDCKMRLFCLPFAGGGALAYRSWCRYMPPEIELCAVQLPGRENRIKDEKFYDINLLIDELVLQILPYLDKPFALYGHSMGGLISFELARRIRKVKGLTPKILFFSGSKAPQLYDHTKDISHLPDELFLKAIKSFNGMPDMFWQDRELIEFKLPTLRADFSVLEGYNYYNEEPLECPISALCGENDKIISKKDMEALALQTKNQFKLRMFDGDHFFINTCRSKVLKSIIEDLN” here?
A: not soluble

Q: With “MDPTDLSFSPDEINKLIETGLNTVEYFTSQQVTGTSSLGKNTIPPGVTGLLTNAAEAKIQESTNHQKGSVGGGAKPKKPRPKIAIVPADDKTVPGKPIPNPLLGLDSTPSTQTVLDLSGKTLPSGSYKGVKLAKFGKENLMTRFIEEPRENPIATSSPIDFKRGRDTGGFHRREYSIGWVGDEVKVTEWCNPSCSPITAAARRFECTCHQCPVTCSECERDT” as the sequence, how does the “soluble on expression in E. coli” value read?
A: soluble

Q: With “MAQTIQLANHSEMTIIDNDLHVDVIGNQAHFSFSGLHNKTFTDREVLFEMPFLYEHEANVIGDGFQMLAQTSGTITHPIEIGRCPDNIPPYRVYSQHAPKRYYNYLVIEDSAGYTLFGFTTCRRFAGYFDIQQRNGQWILTAAIDGEHTQVADWEHNQ” as the sequence, how does the “soluble on expression in E. coli” value read?
A: not soluble

Q: Which “soluble on expression in E. coli” value does the source give for “MLVCDFKTTCLNWVNVDDVVMGGVSNSAMQLTQDGTAVFAGNLSLENSGGFASVRTVLERRNYADFAGFRIRVKGDGKRYSFRARNDERFDGVVYKFDFETVPDEWMEIDLSFAGFIPSFRGRTLVDVPPLDSSNIVQIGLLVSNKQAGAFWLEIAWIEAYRADTVASSFRLEHHHHHH” here?
A: soluble

Q: For “MAPTTVIADNNCNEESSNSFEMEIEAESAILEQIQNKMAKNLESAAYVPPTEEEQKAIDAKSVFIGNVDFNSTIEEVEEHFKGCGHIVRTTIPKDKFTKKQKNFAYIEFDDSSSIENALVMNGSLFRSRPIVVTAKRTNIPGMGHGVRGSSRGTFGRGRGAARGAPGRQQTVVVKYVYVNGPNRGGRGGRGRRFNPY”, which “soluble on expression in E. coli” value is on record?
A: soluble

Q: Which “soluble on expression in E. coli” value does the source give for “MSEPISPRTPQQALAALLARYAPKHLLLVGASRLPAVEAFIHNHPQCQLAHSPAAALPAELAGQRFDLALFVDCLEHLPQRTGLQLLAGVRNLNASRVAVLVDLEASDWQETDFFALAMQNSERFQREGQTLTLYTYDLYEYKQVPDWLNAKFWANPENFGKYWW” here?
A: not soluble

Q: For “MGSDKIHHHHHHMSYWIQISNNVRYSNTFEPVCQPGATREERSTTDPGGVGTVPAIHGASNLNIIPIMRARRASITWPSEGLTRVPYALFQDEGVYADEQDAIFRGPNWSYLCLEAEVPNQGDFRSTFVGDAPVVVTRDTDGEIYAFENRCAHRGAMVCLEDQGNARDFSCVYHAWTYSLQGDLVGVAFKDGIDGKGGMKPDFCTGDHGLRKLRVATLHGLVFGSFSDDVPPLDEYLGEEIVERIARVLENRKPVVLGRFTQMLPNNWKLYFENVKDSYHASILHLFFTTFQLNRLSQRGGIIVDPSGGHHVSYSAVDHAAEAAAQRKATSDYADQKIRSESEHRLEDTSVLAGVDEFGDGVTLQILSVFPGFVLQQIQNAIAVRQILPRGTQQTELNWTYLGFEDDTPELREMRLRQSNLVGPAGYVSMEDGCVGGFVQRGIEGAGDGRSVIEMGGDSAESSASRVTEASIRGFWKAYRNAMGY”, which “soluble on expression in E. coli” value is on record?
A: not soluble
